The values that follow are results of earlier work, collected in paper PMC10231660.

Where two headings read alike, the source gives them in different places.

In one series the target is MC1R (UniProt Q01726).
Series [1] addresses ZNRF3 (Homo sapiens) (UniProt Q9ULT6).
The target in series [2] is BMPR1A ECD (Homo sapiens) (UniProt P36894).
In series [3] the target is ZNRF3 (Homo sapiens) (UniProt Q9ULT6). The source holds these as a separate data set.
The target is the same in series [4]. This is another data set of the same source.
The target is the same in series [5]. The source holds these as a separate data set.

Sequence of UniProt Q9ULT6 (Q9ULT6 56-219): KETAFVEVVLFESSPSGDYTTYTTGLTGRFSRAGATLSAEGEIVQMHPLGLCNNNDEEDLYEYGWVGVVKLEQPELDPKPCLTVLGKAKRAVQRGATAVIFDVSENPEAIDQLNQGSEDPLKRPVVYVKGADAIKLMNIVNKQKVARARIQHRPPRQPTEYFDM
Sequence of UniProt P36894 (P36894 24-152): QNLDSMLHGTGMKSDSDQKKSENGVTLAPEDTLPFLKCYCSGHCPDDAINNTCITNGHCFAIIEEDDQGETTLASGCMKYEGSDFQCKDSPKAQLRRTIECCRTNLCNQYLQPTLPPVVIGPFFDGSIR
Sequence of UniProt Q01726 (Q01726 whole entry): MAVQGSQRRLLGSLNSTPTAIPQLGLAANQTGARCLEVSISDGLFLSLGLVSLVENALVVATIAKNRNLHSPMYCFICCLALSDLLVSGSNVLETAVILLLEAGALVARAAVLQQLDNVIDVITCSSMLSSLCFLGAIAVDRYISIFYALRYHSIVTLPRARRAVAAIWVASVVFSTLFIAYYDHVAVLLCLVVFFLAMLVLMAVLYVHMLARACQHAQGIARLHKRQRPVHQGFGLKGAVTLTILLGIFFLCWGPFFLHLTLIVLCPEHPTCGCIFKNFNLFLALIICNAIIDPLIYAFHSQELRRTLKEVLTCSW

Consider ASP CTD (from UniProt P42127), for which the Kd in the series with MC1R was 1 nM. RSPO1 FU1 (from UniProt Q2MKA7): the Kd with ZNRF3 (Homo sapiens) [1] was 6800 nM. In the case of RSPO2 (from UniProt Q6UXX9), the Kd in series [2] was 4.8 nM. Regarding RSPO2 FU1 (from UniProt Q6UXX9), the Kd with ZNRF3 (Homo sapiens) [3] was 25 nM. For the substance RSPO3 FU1 (from UniProt Q9BXY4), the Kd in the series with ZNRF3 (Homo sapiens) [4] was 60 nM.

On to RSPO4 FU1 (from UniProt Q2I0M5), for which the Kd with ZNRF3 (Homo sapiens) [5] was 300000 nM.
